Legend:
[1] = tested on: N[C@@H](CCS(=O)(=O)CCC(=O)NCC(=O)O)C(=O)O; experiment: (§1) Michaelis-Menten constant for Gamma-glutamyltranspeptidase in rat kidney
[2] = tested on: NC(CC[S+]([O-])CCC(=O)NCC(=O)O)C(=O)O; experiment: as §1

Sequence of Glutathione hydrolase 1 proenzyme (Rattus norvegicus), P07314 (P07314 whole entry): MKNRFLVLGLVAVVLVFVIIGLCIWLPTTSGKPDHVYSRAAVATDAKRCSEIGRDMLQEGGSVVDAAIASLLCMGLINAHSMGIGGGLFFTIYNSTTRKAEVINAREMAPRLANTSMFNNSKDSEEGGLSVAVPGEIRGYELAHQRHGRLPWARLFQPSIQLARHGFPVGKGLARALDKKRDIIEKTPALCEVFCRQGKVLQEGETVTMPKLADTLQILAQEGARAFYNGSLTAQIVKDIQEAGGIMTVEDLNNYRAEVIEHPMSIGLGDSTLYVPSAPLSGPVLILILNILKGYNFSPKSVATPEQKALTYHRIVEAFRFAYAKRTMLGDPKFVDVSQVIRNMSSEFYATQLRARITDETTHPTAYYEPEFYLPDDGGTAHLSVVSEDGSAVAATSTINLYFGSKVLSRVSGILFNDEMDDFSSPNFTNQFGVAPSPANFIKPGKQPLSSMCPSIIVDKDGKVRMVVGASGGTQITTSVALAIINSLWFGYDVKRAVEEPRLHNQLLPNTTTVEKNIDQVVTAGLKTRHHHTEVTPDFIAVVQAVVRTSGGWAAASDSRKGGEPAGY

Question: How did the Km [1] turn out when “Glutathione hydrolase 1 proenzyme (Rattus norvegicus), P07314” was run?
Answer: Its Km is 590 µM.

Question: What about the Km [2] of the same substance?
Answer: The Km was 500 µM.
